What all share (test): cell-based or functional assay
The target in assay [1] is T1, Fms(h) (human) (UniProt P07333).
T1 sequence (looked up): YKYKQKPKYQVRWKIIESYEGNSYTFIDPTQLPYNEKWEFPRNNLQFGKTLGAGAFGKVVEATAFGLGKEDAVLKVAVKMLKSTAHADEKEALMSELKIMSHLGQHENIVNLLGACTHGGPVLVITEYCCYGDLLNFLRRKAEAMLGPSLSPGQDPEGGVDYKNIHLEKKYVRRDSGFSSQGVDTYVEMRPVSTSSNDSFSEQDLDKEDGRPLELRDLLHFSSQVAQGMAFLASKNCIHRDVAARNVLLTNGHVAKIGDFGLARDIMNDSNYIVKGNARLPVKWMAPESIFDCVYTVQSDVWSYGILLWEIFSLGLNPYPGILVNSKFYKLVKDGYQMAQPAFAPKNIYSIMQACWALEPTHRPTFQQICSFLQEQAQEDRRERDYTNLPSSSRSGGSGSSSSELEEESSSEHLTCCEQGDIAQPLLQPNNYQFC

The target in assay [2] is IR(h), activated (human) (UniProt P06213).
IR(h), activated (human), sequence (P06213 1005-1310 limits assumed): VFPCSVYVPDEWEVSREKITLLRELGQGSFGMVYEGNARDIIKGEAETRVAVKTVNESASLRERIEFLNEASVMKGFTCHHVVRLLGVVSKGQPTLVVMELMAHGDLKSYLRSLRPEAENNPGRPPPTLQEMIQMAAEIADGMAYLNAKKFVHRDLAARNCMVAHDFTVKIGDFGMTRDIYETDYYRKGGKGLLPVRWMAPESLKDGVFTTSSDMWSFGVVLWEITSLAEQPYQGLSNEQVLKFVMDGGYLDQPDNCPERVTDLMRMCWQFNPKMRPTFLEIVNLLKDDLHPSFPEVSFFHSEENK
Assay [3] concerns the target T2, Haspin(h) (human) (UniProt Q8TF76).
T2 sequence (looked up): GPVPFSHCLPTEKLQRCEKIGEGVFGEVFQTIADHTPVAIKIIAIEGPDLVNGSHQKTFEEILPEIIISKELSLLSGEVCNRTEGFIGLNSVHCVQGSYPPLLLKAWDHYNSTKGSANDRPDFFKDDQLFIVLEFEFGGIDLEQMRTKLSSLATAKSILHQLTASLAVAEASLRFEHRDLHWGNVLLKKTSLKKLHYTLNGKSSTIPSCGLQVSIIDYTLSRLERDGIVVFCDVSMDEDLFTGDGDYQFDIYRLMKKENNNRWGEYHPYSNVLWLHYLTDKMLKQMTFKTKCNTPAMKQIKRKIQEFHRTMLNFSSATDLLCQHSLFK

Assay [4] concerns the target T3, Tec(h) activated (human) (UniProt P42680).
T3 sequence (looked up): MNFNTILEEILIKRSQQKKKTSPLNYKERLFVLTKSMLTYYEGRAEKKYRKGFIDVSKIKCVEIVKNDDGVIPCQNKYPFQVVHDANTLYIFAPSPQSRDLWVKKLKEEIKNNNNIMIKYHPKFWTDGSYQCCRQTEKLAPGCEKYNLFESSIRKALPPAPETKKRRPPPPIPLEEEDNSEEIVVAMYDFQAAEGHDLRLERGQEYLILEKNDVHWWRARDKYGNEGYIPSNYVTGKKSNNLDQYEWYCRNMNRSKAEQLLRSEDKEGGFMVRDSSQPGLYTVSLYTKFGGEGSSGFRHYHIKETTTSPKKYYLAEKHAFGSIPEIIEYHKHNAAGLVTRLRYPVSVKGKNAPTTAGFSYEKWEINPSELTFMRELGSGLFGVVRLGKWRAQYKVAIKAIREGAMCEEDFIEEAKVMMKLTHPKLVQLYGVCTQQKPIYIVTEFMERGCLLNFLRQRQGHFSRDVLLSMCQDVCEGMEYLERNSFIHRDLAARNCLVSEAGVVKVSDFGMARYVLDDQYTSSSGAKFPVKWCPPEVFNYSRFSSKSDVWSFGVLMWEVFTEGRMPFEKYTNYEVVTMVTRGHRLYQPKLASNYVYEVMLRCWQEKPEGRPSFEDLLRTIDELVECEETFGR

Assay [5] concerns the target EphB1(h) (human) (UniProt P54762).
Assay [6] has as its target Plk3(h) (human) (UniProt Q9H4B4).
Assay [7] has as its target T4, MST2(h) (human) (UniProt Q13188).
T4 sequence (looked up): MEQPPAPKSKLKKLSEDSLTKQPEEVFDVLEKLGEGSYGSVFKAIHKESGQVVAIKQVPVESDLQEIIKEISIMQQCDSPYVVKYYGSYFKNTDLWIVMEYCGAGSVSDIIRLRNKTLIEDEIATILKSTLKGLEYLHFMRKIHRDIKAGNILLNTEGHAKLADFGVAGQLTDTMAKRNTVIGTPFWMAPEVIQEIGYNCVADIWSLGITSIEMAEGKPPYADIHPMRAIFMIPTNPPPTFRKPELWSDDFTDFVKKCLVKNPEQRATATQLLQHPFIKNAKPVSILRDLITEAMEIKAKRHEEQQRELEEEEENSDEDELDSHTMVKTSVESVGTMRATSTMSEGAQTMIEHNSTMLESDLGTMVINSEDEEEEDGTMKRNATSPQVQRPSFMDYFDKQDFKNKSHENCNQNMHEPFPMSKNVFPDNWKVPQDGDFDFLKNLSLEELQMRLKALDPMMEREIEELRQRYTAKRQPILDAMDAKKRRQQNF

Assay [8] has as its target Flt4(h) (human) (UniProt P35916).
In assay [9] the target is Src(T341M)(h) (human) (UniProt P12931).
Assay [10] addresses Rsk1(h) (human) (UniProt Q15418).
In assay [11] the target is JNK2α2(h) (human) (UniProt P45984).
The target of assay [12] is IRR(h) (human) (UniProt P14616).
IRR(h) (human), sequence (P14616 944-1297 limits assumed): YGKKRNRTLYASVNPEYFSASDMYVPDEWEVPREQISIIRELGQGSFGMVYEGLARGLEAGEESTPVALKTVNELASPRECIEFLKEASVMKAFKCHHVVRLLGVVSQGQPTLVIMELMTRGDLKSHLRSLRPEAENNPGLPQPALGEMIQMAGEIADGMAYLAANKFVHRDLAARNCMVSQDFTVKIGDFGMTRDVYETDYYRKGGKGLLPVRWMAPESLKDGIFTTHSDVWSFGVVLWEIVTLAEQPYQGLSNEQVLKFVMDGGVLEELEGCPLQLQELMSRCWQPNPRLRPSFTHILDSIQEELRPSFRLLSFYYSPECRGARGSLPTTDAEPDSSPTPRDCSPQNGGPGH
The target of assay [13] is CHK2(I157T)(h) (human) (UniProt O96017).
CHK2(I157T)(h) (human), sequence (O96017 5-543 I157T limits assumed): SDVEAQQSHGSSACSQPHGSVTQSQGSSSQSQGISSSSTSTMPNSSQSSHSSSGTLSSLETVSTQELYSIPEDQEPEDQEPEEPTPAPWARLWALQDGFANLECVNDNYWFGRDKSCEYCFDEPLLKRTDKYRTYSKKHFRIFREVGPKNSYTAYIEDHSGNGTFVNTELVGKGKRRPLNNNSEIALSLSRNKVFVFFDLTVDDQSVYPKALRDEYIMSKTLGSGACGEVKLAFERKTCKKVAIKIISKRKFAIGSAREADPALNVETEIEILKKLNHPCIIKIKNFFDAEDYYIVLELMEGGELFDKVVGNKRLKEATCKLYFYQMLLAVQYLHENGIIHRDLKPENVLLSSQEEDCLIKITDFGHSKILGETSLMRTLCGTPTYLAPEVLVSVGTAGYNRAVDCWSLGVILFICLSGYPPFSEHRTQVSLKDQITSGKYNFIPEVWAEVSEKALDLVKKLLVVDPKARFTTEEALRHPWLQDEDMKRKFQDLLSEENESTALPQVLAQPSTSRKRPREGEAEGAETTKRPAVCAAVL
For assay [14], the target named is SAPK2b(h) (human) (UniProt Q15759).
SAPK2b(h) (human), sequence (Q15759 whole entry): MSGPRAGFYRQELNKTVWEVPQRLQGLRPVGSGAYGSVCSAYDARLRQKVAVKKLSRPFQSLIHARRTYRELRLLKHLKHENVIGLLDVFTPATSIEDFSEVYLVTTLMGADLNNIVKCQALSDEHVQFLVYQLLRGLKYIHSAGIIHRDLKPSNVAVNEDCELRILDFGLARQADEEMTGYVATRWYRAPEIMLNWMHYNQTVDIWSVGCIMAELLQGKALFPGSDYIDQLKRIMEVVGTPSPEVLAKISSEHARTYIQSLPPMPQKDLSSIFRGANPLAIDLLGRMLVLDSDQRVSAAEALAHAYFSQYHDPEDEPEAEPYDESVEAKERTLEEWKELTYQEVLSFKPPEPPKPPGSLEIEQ
Assay [15] has as its target Pim-2(h) (human) (UniProt Q9P1W9).
Assay [16] addresses MELK(h) (human) (UniProt Q14680).

Rsk1(h) (human), sequence (Q15418 whole entry): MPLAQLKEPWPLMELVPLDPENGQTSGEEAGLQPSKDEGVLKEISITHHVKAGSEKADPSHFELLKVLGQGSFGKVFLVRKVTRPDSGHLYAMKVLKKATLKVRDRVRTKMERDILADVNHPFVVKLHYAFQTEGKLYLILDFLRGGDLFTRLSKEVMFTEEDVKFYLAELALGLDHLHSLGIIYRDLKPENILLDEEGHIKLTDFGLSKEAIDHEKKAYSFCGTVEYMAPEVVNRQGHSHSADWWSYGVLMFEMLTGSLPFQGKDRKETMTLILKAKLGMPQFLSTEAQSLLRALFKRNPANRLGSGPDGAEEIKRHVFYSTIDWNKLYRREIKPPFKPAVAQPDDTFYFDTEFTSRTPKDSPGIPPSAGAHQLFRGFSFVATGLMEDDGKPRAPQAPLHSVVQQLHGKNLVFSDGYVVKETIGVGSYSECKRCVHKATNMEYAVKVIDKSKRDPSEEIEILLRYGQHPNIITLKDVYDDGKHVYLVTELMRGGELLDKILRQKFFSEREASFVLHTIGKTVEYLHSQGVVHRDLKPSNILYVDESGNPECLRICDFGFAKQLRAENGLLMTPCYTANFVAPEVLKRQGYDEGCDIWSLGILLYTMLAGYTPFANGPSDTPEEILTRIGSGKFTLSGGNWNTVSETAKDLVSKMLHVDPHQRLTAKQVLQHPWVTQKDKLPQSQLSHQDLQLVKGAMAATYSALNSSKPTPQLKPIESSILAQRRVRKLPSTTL
Flt4(h) (human), sequence (P35916 800-1363 limits assumed): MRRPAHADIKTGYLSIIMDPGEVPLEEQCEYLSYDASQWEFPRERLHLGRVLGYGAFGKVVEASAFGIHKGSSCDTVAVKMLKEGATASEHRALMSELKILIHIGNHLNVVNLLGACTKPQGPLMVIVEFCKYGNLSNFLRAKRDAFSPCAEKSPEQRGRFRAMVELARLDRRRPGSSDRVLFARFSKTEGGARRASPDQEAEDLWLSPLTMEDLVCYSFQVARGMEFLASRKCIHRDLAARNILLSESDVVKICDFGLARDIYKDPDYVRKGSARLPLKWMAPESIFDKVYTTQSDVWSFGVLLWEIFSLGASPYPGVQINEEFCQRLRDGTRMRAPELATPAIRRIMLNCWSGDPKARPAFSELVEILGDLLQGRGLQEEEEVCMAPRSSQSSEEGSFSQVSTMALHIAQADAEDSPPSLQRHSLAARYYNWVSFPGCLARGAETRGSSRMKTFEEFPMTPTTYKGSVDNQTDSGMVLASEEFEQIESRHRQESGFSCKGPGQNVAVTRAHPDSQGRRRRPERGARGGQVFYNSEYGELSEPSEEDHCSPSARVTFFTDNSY
EphB1(h) (human), sequence (P54762 564-984 limits assumed): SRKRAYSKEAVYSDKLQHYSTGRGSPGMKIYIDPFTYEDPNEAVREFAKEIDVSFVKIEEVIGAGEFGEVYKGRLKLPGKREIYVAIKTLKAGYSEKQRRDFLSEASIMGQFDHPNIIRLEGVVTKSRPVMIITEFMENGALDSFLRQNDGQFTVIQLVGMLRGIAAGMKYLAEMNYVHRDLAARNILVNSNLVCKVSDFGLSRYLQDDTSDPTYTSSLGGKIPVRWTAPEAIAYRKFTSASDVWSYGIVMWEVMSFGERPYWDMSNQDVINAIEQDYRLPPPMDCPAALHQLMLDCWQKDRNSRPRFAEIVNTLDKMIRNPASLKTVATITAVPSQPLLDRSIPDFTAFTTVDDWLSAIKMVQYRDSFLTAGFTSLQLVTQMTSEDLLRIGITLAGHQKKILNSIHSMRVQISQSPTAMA

Turning to MMI-0300 (peptide), the % activity at 100 µM was 45% in assay [1]; 79% in assay [2]; 48% in assay [3]; 56% in assay [4]; 44% in assay [5]; 127% in [6]. Moreover, the % activity at 100 µM in assay [7] worked out at 19%; in assay [8] it was 83%; in assay [9] it was 70%; in [10] it was 46%; in assay [11], 98%; in assay [12], 8%. The % activity at 100 µM in assay [13] turned out to be 43%; in assay [14], 81%; in assay [15], 76%; in assay [16], 16%.
As to MMI-0500 (peptide), the % activity at 100 µM in [1] came out at 14%; in assay [2] it was 90%; in assay [3], 25%; in [4], 33%; in [5], 37%; in assay [6], 122%. Further, the % activity at 100 µM came out at 2% in assay [7]; 73% in assay [8]; 59% in assay [9]; 34% in assay [10]; 81% in assay [11]; 10% in [12]. Also, the % activity at 100 µM in assay [13] is 3%; in assay [14] it was 42%; in [15] it was 46%; in [16] it was 0%.
As to MMI-0400 (peptide), the % activity at 100 µM was found to be 37% in assay [1]; 59% in assay [2]; 36% in assay [3]; 29% in assay [4]; 58% in [5]; 129% in assay [6]. For the same substance, the % activity at 100 µM in assay [7] was 11%; in assay [8], 89%; in assay [9] it was 76%; in assay [10], 54%; in [11], 96%; in assay [12] it was 8%. Besides, the % activity at 100 µM in assay [13] was 41%; in assay [14] it was 82%; in [15], 92%; in assay [16], 17%.
